To fix the notation:
B1: Endonuclease CUE2, residues 9 to 47; numbered along this chain, P36075 (parent)
chain: HESKLSILMDMFPAISKSKLQVHLLENNNDLDLTIGLLL

± gives the uncertainty stated by the source.

Variants of B1 are the subject of this series. In words: abundance fitness (aPCA) (normalised: wild type 0, dead -1); higher = more abundant; growth selection in yeast, the domain comes from the species named. The settings on record: Saccharomyces cerevisiae (strain ATCC 204508 / S288c).
With HESKLSILMDMFPAISKSKLQVGLLENNNDLDLTIGLLL, the abundance fitness is -0.342 ± 0.036.
In the case of HESKLSILMDMFPAISKSKLQVMLLENNNDLDLTIGLLL, the abundance fitness was -0.165 ± 0.052.
Take HESKLSILMDMFPAISKSKLQVQLLENNNDLDLTIGLLL: the abundance fitness is -0.151 ± 0.065.
The value for HESKLSILMDMFPAISKSKLQVWLLENNNDLDLTIGLLL was -0.305 ± 0.056.
The value for HESKLSILMDMFPAISKSKLQVVLLENNNDLDLTIGLLL was -0.146 ± 0.037; that for HESKLSILMDMFPAISKSKLQVRLLENNNDLDLTIGLLL was -0.124 ± 0.034; that for HESKLSILMDMFPAISKSKLQVDLLENNNDLDLTIGLLL was -0.544 ± 0.11.
Regarding HESKLSILMDMFPAISKSKLQVHLLGNNNDLDLTIGLLL, the abundance fitness is -0.123 ± 0.035.
For the variant HESKLSILMDMFPAISKSKLQVHLLQNNNDLDLTIGLLL, the abundance fitness was -0.151 ± 0.086.
As to HESKLSILMDMFPAISKSKLQVHLLMNNNDLDLTIGLLL, the abundance fitness is -0.176 ± 0.068.
HESKLSILMDMFPAISKSKLQVHLLANNNDLDLTIGLLL: the abundance fitness is 0.047 ± 0.036.
On to HESKLSILMDMFPAISKSKLQVHLLKNNNDLDLTIGLLL, for which the abundance fitness is -0.086 ± 0.14.
The figure for HESKLSILMDMFPAISKSKLQVHLLCNNNDLDLTIGLLL is -0.331 ± 0.1; for HESKLSILMDMFPAISKSKLQVHLLRNNNDLDLTIGLLL it is -0.045 ± 0.032.
As to HESKLSILMDMFPAISKSKLQVHLLSNNNDLDLTIGLLL, the abundance fitness is -0.131 ± 0.044.
With HESKLSILMDMFPAISKSKLQVHLLVNNNDLDLTIGLLL, the abundance fitness was -0.257 ± 0.046.
As for HESKLSILMDMFPAISKSKLQVHLLFNNNDLDLTIGLLL, the abundance fitness is -0.59 ± 0.25.
In the case of HESKLSILMDMFPAISKSKLQVHLLTNNNDLDLTIGLLL, the abundance fitness was -0.113 ± 0.047.
The figure for HESKLSILMDMFPAISKSKLQVHLLDNNNDLDLTIGLLL is -0.139 ± 0.13.
The figure for HESKLSILMDMFPAISKSKLQVHLLLNNNDLDLTIGLLL is -0.288 ± 0.049; for HESKLSILMDMFPAISKSKLQVHLLNNNNDLDLTIGLLL it is 0.381 ± 0.095.
Turning to HESKLSILMDMFPAISKSKLQVHLLWNNNDLDLTIGLLL, the abundance fitness was -0.639 ± 0.071.
For the variant HESKLSILMDMFPAISKSKLQVHLLENNNDEDLTIGLLL, the abundance fitness was -0.633 ± 0.11.
The value for HESKLSILMDMFPAISKSKLQVHLLENNNDCDLTIGLLL was -0.388 ± 0.053.
As to HESKLSILMDMFPAISKSKLQVHLLENNNDHDLTIGLLL, the abundance fitness is -0.676 ± 0.27.
The value for HESKLSILMDMFPAISKSKLQVHLLENNNDIDLTIGLLL was -0.064 ± 0.17; that for HESKLSILMDMFPAISKSKLQVHLLENNNDGDLTIGLLL was -0.913 ± 0.084; that for HESKLSILMDMFPAISKSKLQVHELENNNDLDLTIGLLL was -0.88 ± 0.12.
Consider HESKLSILMDMFPAISKSKLQVHRLENNNDLDLTIGLLL, for which the abundance fitness was -0.855 ± 0.066.
Turning to HESKLSILMDMFPAISKSKLQVHYLENNNDLDLTIGLLL, the abundance fitness is -0.57 ± 0.4.
For the variant HESKLSILMDMFPAISKSKLQVHILENNNDLDLTIGLLL, the abundance fitness is -1 ± 0.24.
In the case of HESKLSILMDMFPAISKSKLQVHMLENNNDLDLTIGLLL, the abundance fitness was -0.31 ± 0.1.
With HESKLSILMDMFPAISKSKLQVHALENNNDLDLTIGLLL, the abundance fitness is -0.898 ± 0.091.
The figure for HESKLSILMDMFPAISKSKLQVHTLENNNDLDLTIGLLL is -0.595 ± 0.2; for HESKLSILMDMFPAISKSKLQVHGLENNNDLDLTIGLLL it is -0.929 ± 0.07; for HESKLSILMDMFPAISKSKLQVHQLENNNDLDLTIGLLL it is -1.08 ± 0.42.
Regarding HESKLSILMDMFPAISKSKLQVHVLENNNDLDLTIGLLL, the abundance fitness was -0.849 ± 0.061.
Turning to HESKLSILMDMFPAISKSKLQVHWLENNNDLDLTIGLLL, the abundance fitness is -1.05 ± 0.12.
For HESKLSILMDMFPAISKSKLQVHPLENNNDLDLTIGLLL, the abundance fitness was -0.982 ± 0.21.
The value for HESKLSILMDMFPAISKSKLQVHLLENWNDLDLTIGLLL was -0.485 ± 0.092; that for HESKLSILMDMFPAISKSKLQVHLLENKNDLDLTIGLLL was 0.104 ± 0.066; that for HESKLSILMDMFPAISKSKLQVHLLENPNDLDLTIGLLL was -0.68 ± 0.11.
For the variant HESKLSILMDMFPAISKSKLQVHLLENDNDLDLTIGLLL, the abundance fitness was found to be 0.022 ± 0.12.
As to HESKLSILMDMFPAISKSKLQVHLLENCNDLDLTIGLLL, the abundance fitness is -0.329 ± 0.15.
The value for HESKLSILMDMFPAISKSKLQVHLLENHNDLDLTIGLLL was -0.148 ± 0.18.
On to HESKLSILMDMFPAISKSKLQVHLLENSNDLDLTIGLLL, for which the abundance fitness came out at 0.035 ± 0.049.
Take HESKLSILMDMFPAISKSKLQVHLLENENDLDLTIGLLL: the abundance fitness turned out to be 0.018 ± 0.039.
For HESKLSILMDMFPAISKSKLQVHLLENQNDLDLTIGLLL, the abundance fitness is -0.053 ± 0.061.
With HESKLSILMDMFPAISKSKLQVHLLENRNDLDLTIGLLL, the abundance fitness was -0.085 ± 0.034.
In the case of HESKLSILMDMFPAISKSKLQVHLLENVNDLDLTIGLLL, the abundance fitness was -0.469 ± 0.056.
Turning to HESKLSILMDMFPAISKSKLQVHLLENANDLDLTIGLLL, the abundance fitness is -0.024 ± 0.039.
In the case of HESKLSILMDMFPAISKSKLQVHLLENMNDLDLTIGLLL, the abundance fitness was -0.045 ± 0.062.
Consider HESKLSILMDMFPAISKSKLQVHLLENGNDLDLTIGLLL, for which the abundance fitness worked out at 0.025 ± 0.031.
On to HESKLSILMDMFPAISKSKLQVHLLENTNDLDLTIGLLL, for which the abundance fitness is -0.353 ± 0.078.
Take HESKLSILMDMFPAISKSKLQWHLLENNNDLDLTIGLLL: the abundance fitness was -0.147 ± 0.039.
Consider HESKLSILMDMFPAISKSKLQKHLLENNNDLDLTIGLLL, for which the abundance fitness was determined as 0.03 ± 0.045.
Consider HESKLSILMDMFPAISKSKLQMHLLENNNDLDLTIGLLL, for which the abundance fitness came to 0.019 ± 0.056.
Turning to HESKLSILMDMFPAISKSKLQRHLLENNNDLDLTIGLLL, the abundance fitness turned out to be 0.026 ± 0.032.
As for HESKLSILMDMFPAISKSKLQPHLLENNNDLDLTIGLLL, the abundance fitness was -0.464 ± 0.07.
HESKLSILMDMFPAISKSKLQGHLLENNNDLDLTIGLLL: the abundance fitness is -0.071 ± 0.036.
For the variant HESKLSILMDMFPAISKSKLQSHLLENNNDLDLTIGLLL, the abundance fitness is -0.055 ± 0.051.
As to HESKLSILMDMFPAISKSKLQTHLLENNNDLDLTIGLLL, the abundance fitness is -0.006 ± 0.044.
Consider HESKLSILMDMFPAISKSKLQIHLLENNNDLDLTIGLLL, for which the abundance fitness came to 0.039 ± 0.28.
The value for HESKLSILMDMFPAISKSKLQLHLLENNNDLDLTIGLLL was -0.08 ± 0.041.

The values above are taken from the Human Domainome abundance scans (Beltran et al. 2025).
